Results published in the supplement of paper PMC7125110.
± gives the standard error. For some assays here: Variants at the floor of the assay were thinned out.

B1: glmS ribozyme (parent)
chain: AUAAAAGCGCCAGAACUACAGAAAUGUAGUUGACGAGGAGGAGGUUUAUCGAAUUUUCGGCGGAUGCCUCCAAA

Assays:
Settings in all cases: with glucosamine-6-phosphate
glucosamine-6-phosphate [1] = variants of: B1; assay: kcat; higher = faster cleavage; RNA array
How it was run: (§1)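 Glucosamine-6-phosphate (40 μM to 10 mM) in HEPES/KCl/Mg(OAc)2 buffer was flowed over sequenced MiSeq chips, and tiles were imaged over ~14 h. Barcoded ribozyme variants there had been transcribed in situ by E. coli RNA polymerase and were tracked through a hybridised Cy3 probe at 37 °C. One- or two-exponential decay fits to per-tile medians, normalised to baseline and to non-cleaving reference variants, gave kobs. kcat and KM came from weighted Michaelis–Menten fits across concentrations.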

glucosamine-6-phosphate [2] = variants of: B1; assay: self-cleavage kobs at 2500 uM GlcN6P; higher = faster cleavage; RNA array
How it was run: as §1

glucosamine-6-phosphate [3] = variants of: B1; assay: self-cleavage kobs at 10000 uM GlcN6P; higher = faster cleavage; RNA array
How it was run: as §1

glucosamine-6-phosphate [4] = variants of: B1; assay: KM; higher = weaker cofactor use; RNA array
How it was run: as §1

glucosamine-6-phosphate [5] = variants of: B1; assay: self-cleavage kobs at 40 uM GlcN6P; higher = faster cleavage; RNA array
How it was run: as §1

glucosamine-6-phosphate [6] = variants of: B1; assay: self-cleavage kobs at 160 uM GlcN6P; higher = faster cleavage; RNA array
How it was run: as §1

glucosamine-6-phosphate [7] = variants of: B1; assay: self-cleavage kobs at 640 uM GlcN6P; higher = faster cleavage; RNA array
How it was run: as §1

Variant	kcat (glucosamine-6-phosphate [1])	self-cleavage kobs at 2500 uM GlcN6P (glucosamine-6-phosphate [2])	self-cleavage kobs at 10000 uM GlcN6P (glucosamine-6-phosphate [3])	KM (glucosamine-6-phosphate [4])	self-cleavage kobs at 40 uM GlcN6P (glucosamine-6-phosphate [5])	self-cleavage kobs at 160 uM GlcN6P (glucosamine-6-phosphate [6])	self-cleavage kobs at 640 uM GlcN6P (glucosamine-6-phosphate [7])
AUAAAAGCGCGCGAACUACAGAAAUGUAGUUGACGAGGAGGAGGUUUAUCGAAUUUUCGGCGGAUGCCUCCAAA [C11G A12C]	0.000156 ± 3.2e-05 s⁻¹	6.61e-05 ± 1.2e-05 s⁻¹	0.00011 ± 1.3e-05 s⁻¹				
AUAAAAGCGCCAGAACUACAGAAAUGUAGUUGACGAGGGGGAGGUUUAUCGAUUUUUCGGCGGAUGCCUCCAAA [A39G A53U]	0.0202 ± 0.0043 s⁻¹	0.0119 ± 0.0027 s⁻¹	0.0229 ± 0.0041 s⁻¹	805 ± 260 µM	0.00108 ± 0.00016 s⁻¹	0.00271 ± 0.00057 s⁻¹	0.0101 ± 0.0016 s⁻¹
AUAAAAGCGCCAGAACUACAGAAAUGUAGUUGACGAGGAGGAGGUUUAUCGAAUUUUCGGCCGAUGCCUUCAAA [G62C C70U]	< 1e-05 s⁻¹		< 1e-05 s⁻¹		< 1e-05 s⁻¹	< 1e-05 s⁻¹	< 1e-05 s⁻¹
AUAAAAGCGCCAGAACUACAGAAAUGUAGUUGACGAGGAGGAGGUUUAUCGAUUUUUCGGCGCAUGCCUCCAAA [A53U G63C]	< 1e-05 s⁻¹						
AUAAAAGCGCCAGAACUACAGAAAUGUAGUUGACGAGGAGGAGGUUUAUCGAAAUUUCGGCGGAUCCCUCCAAA [U54A G66C]	0.000876 ± 0.00013 s⁻¹	0.000758 ± 0.00014 s⁻¹	0.000737 ± 0.0001 s⁻¹	1230 ± 390 µM		0.00012 ± 2.7e-05 s⁻¹	0.000259 ± 6.7e-05 s⁻¹
AUAAAAGCGCCAGAACUACAGAAAUGUAGUUGACGAGGAGGAGGUUGAUCGAGUUUUCGGCGGAUGCCUCCAAA [U47G A53G]	0.00632 ± 0.0012 s⁻¹	0.00362 ± 0.00064 s⁻¹	0.0074 ± 0.00097 s⁻¹	804 ± 250 µM	0.000319 ± 4.7e-05 s⁻¹	0.000975 ± 0.00019 s⁻¹	0.00317 ± 0.00055 s⁻¹
AUAAAAGCGCCAGAGCUACAGAAAUGUAGUUGACGAGGAGGAGGUUGAUCGAAUAUUCGGCGGAUGCCUCCAAA [A15G U47G U55A]	0.0098 ± 0.003 s⁻¹	0.00474 ± 0.0016 s⁻¹	0.00887 ± 0.003 s⁻¹	1860 ± 850 µM	0.000187 ± 5.9e-05 s⁻¹		0.00364 ± 0.0011 s⁻¹
AUAAAAGCGCCAGAACUACAGAAAUGUAGUUGACGAGGAGGCGGUUUAUCGAAUUUUCGGCGGAUUCCUCCAAA [A42C G66U]	1.53e-05 ± 2e-06 s⁻¹						
AUAAAAGCGCUAGAACUACAGAAAUGUAGUUGACGAGGACGAGGUUUAUCGAAUUUUCGGCGGAUGCCUCUAAA [C11U G40C C71U]	0.000141 ± 1.8e-06 s⁻¹	8.73e-05 ± 2.5e-05 s⁻¹	0.000124 ± 1.7e-05 s⁻¹	1450 ± 65 µM			4.4e-05 ± 1.6e-05 s⁻¹
AUAAAAGCGCCAGAACUACAGAAAUGUAGUUGACGAGGAGGAGGUUUAUCGAAUUUUCGGAGGAUGCAUCCAAA [C61A C68A]	1.17e-05 ± 1.8e-06 s⁻¹						
AUAAAAUCGCCAGAACUACAGAAAUGUAGUUGACGAGGAGGAGGUUUAUCGAAUUUUCGGCGGAUGCCUCGAAA [G7U C71G]	1.1e-05 ± 2.1e-06 s⁻¹					< 1e-05 s⁻¹	
AUAAAAGCGCCAGAAUUACAGAAAUGUAGUUGACGAGGAGGAGGUUUAUCGAAUUCUCGGCGGAUGCCUCCAAA [C16U U56C]	0.00495 ± 0.00037 s⁻¹	0.00199 ± 0.00037 s⁻¹	0.00349 ± 0.00036 s⁻¹	4050 ± 460 µM	4.49e-05 ± 7.9e-06 s⁻¹	0.00024 ± 8.3e-05 s⁻¹	0.000693 ± 0.00011 s⁻¹
AUAAAAGCGCCAGAACUACAGAAAUGUAGUUGACGAGGAGGAGGAUUAUCGAAUUUUCGGCGGAUGGCUCCAAA [U45A C67G]	0.000766 ± 0.00012 s⁻¹	0.000606 ± 0.00012 s⁻¹	0.0006 ± 6.8e-05 s⁻¹	2290 ± 680 µM			0.000163 ± 2.6e-05 s⁻¹
AUAAAAGCGCCAGAACUACAGAAAUGUAGUUGACGAGGAGGAGGUUCAUCGCAUUUUCGGCGGAUGCCUCCAAA [U47C A52C]	4.02e-05 ± 1.2e-06 s⁻¹			3020 ± 290 µM		< 1e-05 s⁻¹	< 1e-05 s⁻¹
AUAAAAGCGCCAGAACUACAGAAAUGUAGUUGACGAGGAGGAGGUUUAUCGAAUUUUCGGCGGAUCUCUCCAAA [G66C C67U]	2.82e-05 ± 1.9e-06 s⁻¹		2.37e-05 ± 7.3e-06 s⁻¹	1800 ± 520 µM			
AUAAAAGCGCCAGAAUUACAGAAAUGUAGUUGACGAGGAGGAGGUGUAUCGAAUUUUCGGCGGAUGCCUCCAAA [C16U U46G]	0.00589 ± 0.00074 s⁻¹	0.00323 ± 0.0005 s⁻¹	0.00531 ± 0.00055 s⁻¹	1810 ± 320 µM	0.00014 ± 1.3e-05 s⁻¹	0.000489 ± 8.8e-05 s⁻¹	0.00131 ± 0.00016 s⁻¹
AUAAAAGCGCCAAAACUACAGAAAUGUAGUUGACGAGGAAGAGGUUUAUCGAAUUUUCGGCGGAUGCCUCCAAA [G13A G40A]	0.000179 ± 1.9e-05 s⁻¹	5.48e-05 ± 1.2e-05 s⁻¹	0.00011 ± 1.8e-05 s⁻¹	6100 ± 1200 µM			
